According to paper PMC9254666:

Target: p53 (Homo sapiens), P04637
Experiment: ELISA
Conditions: remark: other sources report otherwise

p53 (Homo sapiens), P04637, sequence (P04637 whole entry): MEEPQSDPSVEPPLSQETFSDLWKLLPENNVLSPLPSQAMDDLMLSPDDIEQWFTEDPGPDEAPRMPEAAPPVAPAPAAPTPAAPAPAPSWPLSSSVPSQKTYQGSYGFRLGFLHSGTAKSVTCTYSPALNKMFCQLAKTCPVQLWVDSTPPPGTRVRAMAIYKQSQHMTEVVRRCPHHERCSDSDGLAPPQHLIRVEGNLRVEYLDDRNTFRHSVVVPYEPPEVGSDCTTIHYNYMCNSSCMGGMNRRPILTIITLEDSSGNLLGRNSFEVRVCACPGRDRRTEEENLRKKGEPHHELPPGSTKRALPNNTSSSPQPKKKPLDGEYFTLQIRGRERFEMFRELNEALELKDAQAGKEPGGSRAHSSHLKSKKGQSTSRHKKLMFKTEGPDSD

- Kd: 4.4 nM
B1: HDMX, O15151 (protein)
chain: MTSFSTSAQCSTSDSACRISPGQINQVRPKLPLLKILHAAGAQGEMFTVKEVMHYLGQYIMVKQLYDQQEQHMVYCGGDLLGELLGRQSFSVKDPSPLYDMLRKNLVTLATATTDAAQTLALAQDHSMDIPSQDQLKQSAEESSTSRKRTTEDDIPTLPTSEHKCIHSREDEDLIENLAQDETSRLDLGFEEWDVAGLPWWFLGNLRSNYTPRSNGSTDLQTNQDVGTAIVSDTTDDLWFLNESVSEQLGVGIKVEAADTEQTSEEVGKVSDKKVIEVGKNDDLEDSKSLSDDTDVEVTSEDEWQCTECKKFNSPSKRYCFRCWALRKDWYSDCSKLTHSLSTSDITAIPEKENEGNDVPDCRRTISAPVVRPKDAYIKKENSKLFDPCNSVEFLDLAHSSESQETISSMGEQLDNLSEQRTDTENMEDCQNLLKPCSLCEKRPRDGNIIHGRTGHLVTCFHCARRLKKAGASCPICKKEIQLVIKVFIA
